Tests used:
[1] = target: DENV2 envelope (E) protein on virus particles (strain PE/95-3808) (Dengue virus 2); test: cell-based or functional assay
[2] = target: DENV1 envelope (E) protein on virus particles (strain PE/97-42735) (Dengue virus 1); test: cell-based or functional assay
[3] = target: T1, ZIKV Envelope (E) protein, recombinant, in its dimeric form (Native Antigen, UK) (Zika virus); test: thermal unfolding of the ZVPA3-E(Dimer) complex at the estimated stoichiometry, compared with ZVPA3 alone
T1 chain: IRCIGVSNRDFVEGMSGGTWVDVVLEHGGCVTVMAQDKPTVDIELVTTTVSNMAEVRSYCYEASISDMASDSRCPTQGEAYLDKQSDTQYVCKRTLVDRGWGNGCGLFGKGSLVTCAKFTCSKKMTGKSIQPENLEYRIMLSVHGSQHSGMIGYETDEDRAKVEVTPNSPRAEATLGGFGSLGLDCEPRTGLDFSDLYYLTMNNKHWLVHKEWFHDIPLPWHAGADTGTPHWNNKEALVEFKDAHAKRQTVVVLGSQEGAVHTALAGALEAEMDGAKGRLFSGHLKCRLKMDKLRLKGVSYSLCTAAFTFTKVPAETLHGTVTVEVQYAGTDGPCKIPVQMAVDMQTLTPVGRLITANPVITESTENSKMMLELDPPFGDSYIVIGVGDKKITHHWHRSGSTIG

[4] = target: T1, ZIKV Envelope (E) protein, recombinant, …; test: estimated from MST concentrations at maximum binding (ca. 3x10^13 E dimer molecules with ca. 8x10^12 ZVPA3 molecules)
[5] = target: T1, ZIKV Envelope (E) protein, recombinant, …; test: microscale thermophoresis (MST), 150 nM dye-labelled ZIKV E, ZVPA3 titrated in 16 serial 1:2 dilutions, three independent experiments

B1: ZVPA3 (designed binder)
chain: MGSSHHHHHHSSGLVPRGSHMAKGDPHVLLTTSAGNIELELDSQKAPVSVQNFLDYVNNGFYNNTTFHSVIPGYMIQGGGYTEDMQQKQPNPPIKNEADNGLRNTRGTIAMMRTEDKDSATSQFFINVADNAYADHGQTRYGFAVFGKVVKGMDVADKISQVPTHDVGPYQSVPSKPVVILSATVLPGSGC
notes: Produced as a monomer, ca. 20 kDa; In the MST with virus particles ZVPA3 carried the RED NT-647-NHS dye; The crystal structure of ZVPA3 alone is PDB 7ZFM; also called ZVAP3; designed protein
B1 was tested, and the “EC50, plaque reduction neutralization test (PRNT) of DENV2 on Vero cells” value [1] was 0.98 µM, the “EC50, plaque reduction neutralization test (PRNT) of DENV1 on Vero cells” value [2] was 0.87 µM and the “stability gain of the complex against ZVPA3 alone (thermal unfolding)” value [3] was about 5 ° C. For the same binder, the “stoichiometry ratio ZVPA3:E(Dimer)” value [4] was 3.75 E(Dimer) per ZVPA3 and the Kd [5] was 0.0866 µM.

From US20250002566A1 (FUNDA O OSWALDO CRUZ, published 2025)
